# According to publication PMC9915583 (bioRxiv, 2023):
# T1: His-SUMO-FtsZ (C. glutamicum, UniProt P94337 1-442)
# T1 sequence: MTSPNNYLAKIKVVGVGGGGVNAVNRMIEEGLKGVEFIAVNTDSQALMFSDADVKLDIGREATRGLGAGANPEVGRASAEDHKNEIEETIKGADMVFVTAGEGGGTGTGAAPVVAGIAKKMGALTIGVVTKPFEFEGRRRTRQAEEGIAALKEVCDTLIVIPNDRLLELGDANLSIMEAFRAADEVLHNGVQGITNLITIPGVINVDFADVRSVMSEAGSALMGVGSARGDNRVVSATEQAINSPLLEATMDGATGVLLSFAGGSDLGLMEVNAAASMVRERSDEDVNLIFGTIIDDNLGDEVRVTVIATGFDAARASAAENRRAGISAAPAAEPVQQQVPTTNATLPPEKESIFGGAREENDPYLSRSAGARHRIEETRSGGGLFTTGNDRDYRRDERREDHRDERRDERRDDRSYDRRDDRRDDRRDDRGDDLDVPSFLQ
# B1: GLP (recombinant, full-length, untagged) (natural protein)
# chain: MRSVEQQLSIVTEAAVAPEPVRIAIAEALGLMCAEEVQASRALPGFAQAAIDGYAVRAVDVGGEKSLSQQLPVAPPEKSLPVVGEVAAGSQQPLRLQPKQAVMVHTGAPLPMLADAVLPMAWSDRGRKRVTAQRPVRSGEFVRKEGDDIQPGDIAVSAGAVLGPAQIGLLAAVGRSKVLVYPRPRMSVISVGAELVDIDRQPGLGQVYDVNSYSLAAAGREAGADVYRYGIAAGEPRRIKEIIESQMLRSEIIVITGAVGGAGSAGVRQVLNELGDIDTERVAMHPGSVQGFGLLGENKIPCFLLPSNPVASLVIFETFVRPVVRMSLGKSNAARRVVRARALNHVVSVAGRKGFIRSRLMRDAETQDYLVEALGGATGAPSHLLAGLSEANGMIRIPEDVTEIRPGDVVDVIFLAQGR
# B2: GLPR, C-terminal His-tagged (receptor)
# chain: MLHVSGILVIGLIVVVWLVVLAPLLLRGQKPIAKAGEAFDDTRVISEGGSNIPSPRRPGLSSAQLDDEEDTDDVDDDYEIVDSPSIFRPRKEEPVEEDLDTDVELEEDIEVSLETDDYVEPAPVVEVSQEWNVEDHYELDDSYDTPLDHLHPAARARAYEDFQEHQPEQQPEVEEFDADDELTEEDVAFAQRRRGRGYYDPEADREFAASQYVRRQRTLLGLAATVVISVILGFVFGGWVWGLPAVALAATALYLMALRSQVREENALRARRIRRLRRSRMGVRNSEDLPSRLRRPGAVVLELDDESPDFEGLPTVAMPEEPYYEEPRRNIRHLGQRRVS
# What was measured:
# [1] = target: Biotinylated His-GLPR (C. glutamicum ATCC 13032); assay: BLI
# crystal structure = target: the molecule itself; assay: crystal structure
# His-SUMO-FtsZ = target: T1, His-SUMO-FtsZ; assay: BLI
# [2] = target: B1; assay: BLI
molecule,measurement,setting,value
"Wag31 (recombinant, full-length) (natural protein)",Kd,[1],43.4 µM
Wag31_(1–61) (N-terminal DivIVA domain of Wag31) (domain or fragment),Kd,[1],14.9 µM
B1,stoichiometry N,crystal structure,2
same,Kd,His-SUMO-FtsZ,4.7 µM
B2,Kd,[2],5.5 nM
